According to PMC4988710, “A Model for Dimerization of the SOX Group E Transcription Factor Family”:

Key:
[1] = molecular target: T1, SOX9 D-HMG (high solubility variant) (Homo sapiens) (UniProt P48436); assay: EMSA; settings: 10 mM sodium phosphate pH 6.0, 100 mM NaCl, 5 mM EDTA, on ice 30 min (1 h for 32P titrations); 9 nM DNA for Kd, 2 uM DNA for SYBR Green EMSA
T1 sequence: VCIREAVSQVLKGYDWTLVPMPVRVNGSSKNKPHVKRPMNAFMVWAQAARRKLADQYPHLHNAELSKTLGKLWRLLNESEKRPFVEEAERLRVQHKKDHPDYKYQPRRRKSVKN

SOX9 HMG [2] = molecular target: T2, SOX9 HMG (Homo sapiens, UniProt P48436 110-184); assay: EMSA; Hill 1.6 ± 0.5; 10 mM sodium phosphate pH 6.0, 100 mM NaCl, 5 mM EDTA, on ice 30 min (1 h for 32P titrations); 9 nM DNA for Kd, 2 uM DNA for SYBR Green EMSA; settings: protein: recombinant; tags: 6xHis; label: 32P 5'; blunt
SOX9 HMG [3] = molecular target: T2, SOX9 HMG; assay: EMSA; Hill 2.2 ± 0.4; 10 mM sodium phosphate pH 6.0, 100 mM NaCl, 5 mM EDTA, on ice 30 min (1 h for 32P titrations); 9 nM DNA for Kd, 2 uM DNA for SYBR Green EMSA; settings: protein: recombinant; tags: 6xHis; label: 32P 5' for Kd; unlabeled (SYBR Green) in mutant EMSA; blunt; self-complementary, 2 copies of one strand
SOX9 D-HMG A119E = SOX9 D-HMG A119E (Homo sapiens, UniProt P48436 71-184, A119E); assay: EMSA; dimerization lost; single and double occupancy bands; 10 mM sodium phosphate pH 6.0, 100 mM NaCl, 5 mM EDTA, on ice 30 min (1 h for 32P titrations); 9 nM DNA for Kd, 2 uM DNA for SYBR Green EMSA; settings: protein: recombinant; tags: 6xHis; chain copies: 2; label: 32P 5' for Kd; unlabeled (SYBR Green) in mutant EMSA; blunt; self-complementary, 2 copies of one strand
SOX9 D-HMG L142Q = SOX9 D-HMG L142Q (Homo sapiens, UniProt P48436 71-184, L142Q); assay: as above; settings: protein: recombinant; tags: 6xHis; chain copies: 2; label: 32P 5' for Kd; unlabeled (SYBR Green) in mutant EMSA; blunt; self-complementary, 2 copies of one strand
SOX9 D-HMG L145E = SOX9 D-HMG L145E (Homo sapiens, UniProt P48436 71-184, L145E); assay: EMSA; dimerization retained; 10 mM sodium phosphate pH 6.0, 100 mM NaCl, 5 mM EDTA, on ice 30 min (1 h for 32P titrations); 9 nM DNA for Kd, 2 uM DNA for SYBR Green EMSA; settings: protein: recombinant; tags: 6xHis; chain copies: 2; label: 32P 5' for Kd; unlabeled (SYBR Green) in mutant EMSA; blunt; self-complementary, 2 copies of one strand
SOX9 D-HMG A118E = SOX9 D-HMG A118E (Homo sapiens, UniProt P48436 71-184, A118E); assay: as above; settings: protein: recombinant; tags: 6xHis; chain copies: 2; label: 32P 5' for Kd; unlabeled (SYBR Green) in mutant EMSA; blunt; self-complementary, 2 copies of one strand

Q: For “GGGTTAACAGAACAATGGAATCTGGTAGA (double strand) [S9WT]”, which Kd [1] is on record?
A: Its Kd is 82 nM.

Q: Which Kd [1] does the source give for “GGGATCCTACACAAAGCCGGCTTTGTGTAGGATCCC (double strand) [CC36]” here?
A: The Kd was 98 nM.

B1: S9WT (dsDNA)
DNA 1: GGGTTAACAGAACAATGGAATCTGGTAGA
DNA 2: TCTACCAGATTCCATTGTTCTGTTAACCC
Q: Which Kd (SOX9 HMG [2]) does the source give for B1 here?
A: Its Kd is 101 ± 33 nM.

B2: CC36 (dsDNA)
DNA 1: GGGATCCTACACAAAGCCGGCTTTGTGTAGGATCCC
DNA 2: GGGATCCTACACAAAGCCGGCTTTGTGTAGGATCCC
Q: With B2 as the molecule, how does the Kd (SOX9 HMG [3]) read?
A: Its Kd is 109 ± 10 nM.

Q: Does B2 bind (SOX9 D-HMG A119E)?
A: Result: binds

Q: Does B2 bind (SOX9 D-HMG L142Q)?
A: Result: binds

Q: Does B2 bind (SOX9 D-HMG L145E)?
A: Result: binds

Q: Does B2 bind (SOX9 D-HMG A118E)?
A: Result: binds
